Test results as given in patent publication US20110039785A1, “POLYPEPTIDE-NUCLEIC ACID CONJUGATES AND USES THEREOF” (Angiochem Inc., priority 2007, published 2011).

Tests used:
[1] = test system: liver, lung, kidney, spleen, and muscle cells; conditions: cited from earlier work
BBB = assay: in situ brain perfusion in mice; type: in vivo; conditions: 125 nM radiolabeled conjugate; uptake into the brain; FIG. 20
Method: Transport of the conjugates was measured in vivo using in situ brain perfusion in mice. […] The amount present in the brain parenchyma was determined following brain capillary depletion (FIG. 6).
In situ perfusions using 125 nM of the cleavable and non-cleavable conjugates were performed, and uptake into the brain was measured. Inulin was used as a control. […] Kin values were measured for each protein: The cleavable conjugated has a Kin value of 1.1×10^−4 ml/s/g, the non-cleavable has a Kin value of 4.7×10^−5 ml/s/g, and inulin has a Kin value of 2.1×10^−5 ml/s/g.
Partition into brain compartments of the siRNA following capillary depletion was also measured. This perfusion was also performed at 125 nM.
In situ perfusions were also performed using fluorescent siRNA.

Substance	transport into cells of tissues [1]	Kin (BBB)
T F F Y G G S R G R R N N F R T E E Y (TFFYGGSRGRRNNFRTEEY) [AngioPep-7]	efficiently transported into liver, lung, kidney, spleen, and muscle cells	–
inulin	–	2.1e-05 mL/s/g
